{"source": "patent US20190062425A1", "about": "(BETH ISRAEL DEACONESS MEDICAL CENTER, published 2019)", "binders": {"B1": {"name": "8G4 antibody (anti-TM4SF1 mouse monoclonal antibody produced by hybridoma mouse cell line 8G4-5-13-13F, PTA-120523) (antibody, V domains shown)", "VH": "EVILVESGGGLVKPGGSLKLSCAASGFTFSSFAMSWVRQTPEKRLEWVATISSGSIYIYYTDGVKGRFTISRDNAKNTVHLQMSSLRSEDTAMYYCARRGIYYGYDGYAMDYWGQGTSVTVSS", "VL": "AVVMTQTPLSLPVSLGDQASISCRSSQSLVHSNGNTYLHWYMQKPGQSPKVLIYKVSNRFSGVPDRFSGSGSGTDFTLKISRVEADDLGIYFCSQSTHIPLAFGAGTKLELK", "notes": "Mouse monoclonal antibody from a hybridoma; both have the length of variable domains; also called anti-TM4SF1 antibody 8G4"}}, "biological_target": "T1, human transmembrane-4 L six family member-1 (TM4SF1), full-length (human, UniProt P30408 1-202, N-glycosylated at N129 and N159 (ECL2))", "T1 construct": "whole, on cells; Four-transmembrane plasma membrane glycoprotein; It was tested on cells (HUVEC, transduced HDF and HEMn), in tissue sections and on immunoblots; also called FL-TM4SF1; FL", "T1 sequence (looked up)": "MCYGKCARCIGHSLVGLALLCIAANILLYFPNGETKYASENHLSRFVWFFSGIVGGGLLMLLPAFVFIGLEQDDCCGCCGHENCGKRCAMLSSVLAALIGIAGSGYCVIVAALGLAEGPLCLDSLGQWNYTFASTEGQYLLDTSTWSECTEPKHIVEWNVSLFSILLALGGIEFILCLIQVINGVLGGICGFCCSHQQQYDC", "assay": "method not stated"}
{"binder": "B1", "values": [{"measurement": "Kd", "result": "~1", "unit": "nM"}]}
